± gives the uncertainty stated by the source.
B1: Transcriptional regulator ERG, residues 117 to 197; numbered along this chain, P11308 (parent)
chain: NMTTNERRVIVPADPTLWSTDHVRQWLEWAVKEYGLPDVNILLFQNIDGKELCKMTKDDFQRLTPSYNADILLSHLHYLRE
B2: Steroid hormone receptor ERR2, residues 100 to 176; numbered along this chain, O95718 (parent)
chain: KRLCLVCGDIASGYHYGVASCEACKAFFKRTIQGNIEYSCPATNECEITKRRRKSCQACRFMKCLKVGMLKEGVRLD

Variants of: B1
Test: abundance fitness (aPCA) (normalised: wild type 0, dead -1); higher = more abundant; growth selection in yeast, the domain comes from the species named
Settings: Homo sapiens

Variant	abundance fitness
R7L	0.087 ± 0.039
R7K	0.018 ± 0.049
R7M	0.044 ± 0.053
R7W	-0.053 ± 0.045
R7S	-0.047 ± 0.045
R7H	-0.115 ± 0.078
R7E	0.06 ± 0.045
R7Y	-0.127 ± 0.076
R7C	-0.12 ± 0.068
R7I	-0.208 ± 0.074
R7G	-0.003 ± 0.032
R7N	-0.09 ± 0.074
R7P	0.049 ± 0.056
R7D	0.037 ± 0.057
R7V	-0.045 ± 0.038
R7T	0.021 ± 0.048
R7Q	0.016 ± 0.056
R7A	0 ± 0.037
R8A	-0.084 ± 0.056
R8D	0.116 ± 0.067
R8E	0.09 ± 0.068
R8C	-0.112 ± 0.08
R8F	-0.076 ± 0.068
R8G	-0.207 ± 0.067
E6C	-0.242 ± 0.058
E6P	0.033 ± 0.06

Variant	abundance fitness
E6L	0.006 ± 0.042
E6W	0.037 ± 0.041
E6V	-0.142 ± 0.042
E6S	-0.107 ± 0.047
E6R	-0.088 ± 0.036
E6F	0.002 ± 0.082
E6H	0.004 ± 0.083
E6D	-0.085 ± 0.073
E6N	0.017 ± 0.068
E6Y	-0.089 ± 0.091
E6Q	0.002 ± 0.067
E6I	0.007 ± 0.091
E6A	-0.139 ± 0.043
E6M	0.024 ± 0.059
E6T	-0.017 ± 0.055
E6G	0.031 ± 0.029
N1T	0.002 ± 0.072
N1A	-0.144 ± 0.092
N1Y	0.029 ± 0.069
N1K	-0.114 ± 0.09
N1H	-0.279 ± 0.085
N1S	-0.097 ± 0.066
N1F	0.012 ± 0.076
N1E	-0.038 ± 0.12
N1W	-0.168 ± 0.081
N1I	0.007 ± 0.081

Variant	abundance fitness
N1G	-0.154 ± 0.078
N1C	-0.057 ± 0.068
N1M	-0.087 ± 0.071
N1Q	-0.011 ± 0.17
N1R	-0.054 ± 0.072
N1D	-0.071 ± 0.081
N5A	-0.06 ± 0.043
N5V	-0.004 ± 0.044
N5F	0.075 ± 0.079
N5H	-0.071 ± 0.078
N5D	0.079 ± 0.068
N5P	-0.092 ± 0.058
N5Y	-0.105 ± 0.089
N5W	-0.003 ± 0.049
N5G	-0.01 ± 0.034
N5S	-0.119 ± 0.046
N5T	-0.071 ± 0.052
N5I	0.036 ± 0.092
N5M	0.085 ± 0.05
N5R	-0.044 ± 0.037
N5E	0.064 ± 0.047
N5K	0.001 ± 0.056
N5C	-0.01 ± 0.066
T4K	-0.043 ± 0.058
T4P	-0.056 ± 0.056
T4L	-0.025 ± 0.044

Variant	abundance fitness
T4H	-0.151 ± 0.075
T4D	0.04 ± 0.056
T4W	0.01 ± 0.047
T4F	0.079 ± 0.062
T4G	-0.042 ± 0.032
T4Q	-0.126 ± 0.054
T4C	-0.018 ± 0.059
T4E	0.035 ± 0.045
T4I	0.054 ± 0.086
T4R	-0.149 ± 0.037
T4N	-0.028 ± 0.069
T4A	-0.099 ± 0.043
T4M	0.146 ± 0.052
T4Y	-0.04 ± 0.078
T3R	-0.05 ± 0.036
T3N	-0.025 ± 0.078
T3Q	-0.043 ± 0.059
T3M	0.029 ± 0.067
T3D	-0.05 ± 0.066
T3A	-0.043 ± 0.039
T3Y	-0.141 ± 0.078
T3G	-0.022 ± 0.035
T3K	-0.109 ± 0.065
T3P	-0.162 ± 0.071
T3L	-0.094 ± 0.046
T3F	-0.007 ± 0.073

Variant	abundance fitness
T3S	0.055 ± 0.046
T3V	-0.08 ± 0.044
T3I	-0.014 ± 0.08
T3H	-0.127 ± 0.086
T3E	-0.045 ± 0.055
T3C	-0.088 ± 0.066
M2S	-0.105 ± 0.051
M2Y	-0.139 ± 0.11
M2K	-0.144 ± 0.059
M2Q	0.037 ± 0.07
M2L	-0.042 ± 0.053
M2A	-0.296 ± 0.057
M2E	-0.213 ± 0.058
M2T	-0.033 ± 0.051
M2N	-0.028 ± 0.075
M2R	-0.049 ± 0.037
M2I	-0.143 ± 0.084
M2F	-0.048 ± 0.084
M2D	-0.195 ± 0.11
M2H	-0.046 ± 0.095
M2W	-0.17 ± 0.053
M2C	-0.166 ± 0.086
M2G	-0.337 ± 0.044
M2P	0.004 ± 0.07
M2V	-0.417 ± 0.054

Variants of: B2
Test: as above
Settings: Homo sapiens

Variant	abundance fitness
E72L	-0.424 ± 0.066
E72M	-0.448 ± 0.12
E72S	-0.051 ± 0.054
E72Q	-0.16 ± 0.075
E72G	-0.122 ± 0.047
E72T	-0.104 ± 0.063
E72D	-0.012 ± 0.086
E72R	-0.355 ± 0.057
E72F	-0.556 ± 0.15
E72N	0.02 ± 0.092
E72P	-0.029 ± 0.065
E72I	-0.299 ± 0.14
E72H	-0.368 ± 0.18
E72Y	-0.501 ± 0.15
E72A	-0.088 ± 0.061
E72W	-0.503 ± 0.098
E72C	-0.262 ± 0.089
G68R	-0.903 ± 0.098
G68S	-0.954 ± 0.14
G68W	-0.806 ± 0.12
G68A	-0.777 ± 0.098
G68D	-0.267 ± 0.11
G68Q	-0.944 ± 0.2
G68M	-0.851 ± 0.19
G68K	-0.454 ± 0.099
G68C	-0.808 ± 0.18

Variant	abundance fitness
G68P	-0.894 ± 0.23
G68L	-0.749 ± 0.11
G68T	-0.849 ± 0.2
G68N	-0.753 ± 0.33
G68H	-0.657 ± 0.17
L65Y	-0.456 ± 0.17
L65W	-0.697 ± 0.095
R75D	0.04 ± 0.07
R75H	-0.165 ± 0.11
R75P	0.031 ± 0.068
R75A	0.035 ± 0.046
R75I	-0.051 ± 0.095
R75E	0.076 ± 0.051
R75C	0.117 ± 0.067
R75V	0.002 ± 0.042
R75Q	0.153 ± 0.054
R75W	-0.1 ± 0.052
R75N	-0.074 ± 0.1
R75K	0.075 ± 0.057
R75Y	-0.102 ± 0.095
R75F	-0.014 ± 0.079
R75T	0.062 ± 0.059
K71D	-0.102 ± 0.08
K71W	-0.242 ± 0.058
K71L	-0.148 ± 0.047
K71Y	-0.222 ± 0.12

Variant	abundance fitness
K71F	-0.305 ± 0.11
K71I	-0.047 ± 0.09
K71A	-0.109 ± 0.054
K71C	-0.006 ± 0.069
K71P	-0.19 ± 0.084
K71Q	-0.153 ± 0.073
K71V	-0.02 ± 0.045
K71T	-0.106 ± 0.075
K71E	-0.07 ± 0.054
K71S	-0.025 ± 0.054
K71M	-0.063 ± 0.061
K71N	-0.147 ± 0.093
K71G	-0.166 ± 0.044
L76T	-0.024 ± 0.083
L76M	-0.001 ± 0.067
L76D	0.08 ± 0.09
L76S	-0.07 ± 0.062
L76C	-0.099 ± 0.11
L76K	-0.028 ± 0.07
L76Y	-0.001 ± 0.12
L76Q	-0.007 ± 0.061
L76I	-0.037 ± 0.15
L76G	0.055 ± 0.043
L76W	-0.095 ± 0.053
L76P	-0.079 ± 0.08
L76V	0.058 ± 0.045

Variant	abundance fitness
L76A	0.124 ± 0.057
L76E	0.146 ± 0.053
L76N	0.056 ± 0.12
K66P	-1.27 ± 0.38
K66Q	-0.03 ± 0.072
K66R	-0.019 ± 0.043
K66Y	-0.508 ± 0.19
K66G	-0.256 ± 0.053
K66F	-0.585 ± 0.18
K66W	-0.559 ± 0.1
K66D	-0.103 ± 0.094
K66H	-0.168 ± 0.13
K66S	-0.011 ± 0.049
K66T	0.162 ± 0.052
K66M	0.074 ± 0.066
K66L	-0.436 ± 0.065
K66C	-0.354 ± 0.1
K66V	-0.241 ± 0.059
K66E	-0.073 ± 0.075
M69A	-0.639 ± 0.094
M69G	-0.703 ± 0.075
M69Q	-0.752 ± 0.14
M69K	-0.931 ± 0.18
M69N	-0.642 ± 0.17
M69R	-0.729 ± 0.075
M69Y	-0.259 ± 0.097

Variant	abundance fitness
M69V	-0.749 ± 0.095
M69E	-0.57 ± 0.1
M69I	-0.581 ± 0.2
M69T	-0.54 ± 0.12
M69W	-0.231 ± 0.059
M69C	-0.937 ± 0.21
M69H	-1.06 ± 0.37
M69P	-0.782 ± 0.17
M69L	-0.431 ± 0.06
M69F	0.058 ± 0.083
M69D	-0.694 ± 0.15
D77S	-0.059 ± 0.077
D77C	-0.348 ± 0.18
D77Q	0.26 ± 0.13
D77A	-0.131 ± 0.073
D77G	-0.194 ± 0.064
D77V	-0.111 ± 0.068
D77E	-0.096 ± 0.082
D77F	-0.363 ± 0.22
D77L	-0.168 ± 0.088
D77M	-0.35 ± 0.14
D77I	-0.572 ± 0.19
D77Y	-0.29 ± 0.2
D77N	-0.166 ± 0.11
D77R	-0.11 ± 0.058
D77H	0.082 ± 0.12

Variant	abundance fitness
D77T	-0.04 ± 0.095
D77W	-0.287 ± 0.12
D77P	0.171 ± 0.1
V74N	-0.036 ± 0.11
V74C	-0.501 ± 0.13
V74E	0.08 ± 0.054
V74M	-0.13 ± 0.075
V74G	-0.089 ± 0.039
V74T	-0.129 ± 0.08
V74D	0.03 ± 0.091
V74K	-0.124 ± 0.078
V74S	-0.017 ± 0.052
V74R	-0.191 ± 0.046
V74P	-0.025 ± 0.094
V74Y	-0.319 ± 0.16
V74F	-0.171 ± 0.091
V74A	0.126 ± 0.05
V74I	-0.026 ± 0.088
V74L	-0.004 ± 0.05
G73H	-0.104 ± 0.12
G73V	-0.132 ± 0.05
G73F	-0.369 ± 0.14
G73Q	0.046 ± 0.072
G73A	0.08 ± 0.049
G73D	0.133 ± 0.079
G73P	0.019 ± 0.071

Variant	abundance fitness
G73Y	-0.6 ± 0.22
G73R	-0.056 ± 0.043
G73E	0.118 ± 0.052
G73N	-0.107 ± 0.11
G73I	-0.441 ± 0.19
G73S	-0.031 ± 0.054
G73L	-0.016 ± 0.046
G73T	0.002 ± 0.063
G73C	-0.126 ± 0.084
G73M	0.007 ± 0.069
G73K	0.017 ± 0.068
G73W	-0.031 ± 0.057
L70Y	-0.646 ± 0.17
L70S	0.083 ± 0.052
L70F	-0.066 ± 0.073
L70H	-0.158 ± 0.15
L70N	0.032 ± 0.085
L70R	0.014 ± 0.043
L70A	-0.004 ± 0.056
L70Q	-0.035 ± 0.085
L70E	0.101 ± 0.051
L70C	-0.098 ± 0.073
L70K	0.13 ± 0.066
L70M	-0.03 ± 0.08
L70G	-0.084 ± 0.042
L70V	0.107 ± 0.046

Variant	abundance fitness
L70P	-0.044 ± 0.091
L70I	0.034 ± 0.095
L70T	0.011 ± 0.062
L70D	0.069 ± 0.087
L70W	-0.032 ± 0.053
V67W	-0.665 ± 0.13
V67I	-0.323 ± 0.14
V67S	-0.073 ± 0.054
V67E	-0.145 ± 0.058
V67P	-1.03 ± 0.24
V67A	-0.121 ± 0.055
V67F	-0.24 ± 0.15
V67D	-0.646 ± 0.21
V67T	-0.262 ± 0.079
V67H	-0.321 ± 0.17
V67G	-0.425 ± 0.056
V67L	-0.222 ± 0.057
V67N	-0.538 ± 0.24
V67M	-0.061 ± 0.069
V67C	-0.027 ± 0.074
V67Q	-0.439 ± 0.09
V67Y	-0.347 ± 0.14
V67R	-0.409 ± 0.056

Reference: the Human Domainome abundance scans (Beltran et al. 2025)
